System: Escherichia coli TOP10
Experiment: shrunken log2 fold change of peptide-encoding DNA abundance (4.5 h post-induction vs induction); higher = less antimicrobial activity (less host growth inhibition)
Conditions: time post-induction: 4.5 h; library: site-saturation at positions 5, 18, 19, 20
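Note: peptides expressed intracellularly from a pBAD plasmid library in pooled LB shake-flask culture, induced with 0.3% L-arabinose, DNA abundance read by NGS, three biological replicates, DESeq2 with apeglm shrinkage.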

Row | Sequence | shrunken log2 fold change
1 | RRIRFRPPRLPRPRPRPQHAPRP | -0.202
2 | RRIRYRPPRLPRPRPRPKSQPRP | -0.176
3 | RRIRHRPPRLPRPRPRPYKTPRP | -0.00968
4 | RRIRSRPPRLPRPRPRPYTKPRP | -0.202
5 | RRIRYRPPRLPRPRPRPCTAPRP | -1.4
6 | RRIRNRPPRLPRPRPRPGIQPRP | 0.00115
7 | RRIRNRPPRLPRPRPRPVPIPRP | -0.0984
8 | RRIRQRPPRLPRPRPRPEKKPRP | -0.0138
9 | RRIRTRPPRLPRPRPRPRCHPRP | -0.334
10 | RRIRTRPPRLPRPRPRPDSVPRP | -0.0144
11 | RRIRWRPPRLPRPRPRPVCTPRP | 0.26
12 | RRIRSRPPRLPRPRPRPQITPRP | -0.457
13 | RRIRRRPPRLPRPRPRPAVTPRP | -0.111
14 | RRIRGRPPRLPRPRPRPQSYPRP | 0.113
15 | RRIRQRPPRLPRPRPRPCAEPRP | -0.135
16 | RRIRSRPPRLPRPRPRPHMDPRP | -0.427
17 | RRIRGRPPRLPRPRPRPNGCPRP | 0.12
18 | RRIRARPPRLPRPRPRPDVKPRP | 0.395
19 | RRIRMRPPRLPRPRPRPTLIPRP | 0.00162
20 | RRIRPRPPRLPRPRPRPHCPPRP | 0.0157
21 | RRIRNRPPRLPRPRPRPDKNPRP | -0.226
22 | RRIRVRPPRLPRPRPRPMLCPRP | 0.121
23 | RRIRSRPPRLPRPRPRPFFGPRP | 0.148
24 | RRIRQRPPRLPRPRPRPQRYPRP | -0.0112
25 | RRIRFRPPRLPRPRPRPNWTPRP | -0.00237

Row | Sequence | shrunken log2 fold change
26 | RRIRYRPPRLPRPRPRPRKPPRP | 0.0457
27 | RRIRCRPPRLPRPRPRPLTDPRP | -0.285
28 | RRIRLRPPRLPRPRPRPGVRPRP | 0.256
29 | RRIRDRPPRLPRPRPRPASTPRP | 0.397
30 | RRIRERPPRLPRPRPRPFPSPRP | -0.0393
31 | RRIRHRPPRLPRPRPRPKKVPRP | 0.00707
32 | RRIRQRPPRLPRPRPRPNVIPRP | -0.0189
33 | RRIRLRPPRLPRPRPRPNHTPRP | -0.33
34 | RRIRTRPPRLPRPRPRPSLGPRP | -0.229
35 | RRIRMRPPRLPRPRPRPPAIPRP | 0.911
36 | RRIRFRPPRLPRPRPRPDWFPRP | -0.32
37 | RRIRDRPPRLPRPRPRPPKFPRP | -0.154
38 | RRIRVRPPRLPRPRPRPYADPRP | -0.543
39 | RRIRNRPPRLPRPRPRPMSHPRP | -0.249
40 | RRIRCRPPRLPRPRPRPRDHPRP | 0.197
41 | RRIRARPPRLPRPRPRPHMTPRP | -0.0862
42 | RRIRLRPPRLPRPRPRPNSGPRP | -0.095
43 | RRIRHRPPRLPRPRPRPKVNPRP | -0.181
44 | RRIRWRPPRLPRPRPRPVDGPRP | 0.0816
45 | RRIRNRPPRLPRPRPRPQHRPRP | -0.215
46 | RRIRHRPPRLPRPRPRPVNFPRP | -0.636
47 | RRIRRRPPRLPRPRPRPMKNPRP | 0.298
48 | RRIRYRPPRLPRPRPRPAGNPRP | -0.601
49 | RRIRKRPPRLPRPRPRPQWPPRP | 0.124
50 | RRIRFRPPRLPRPRPRPHVTPRP | -0.211

Row | Sequence | shrunken log2 fold change
51 | RRIRQRPPRLPRPRPRPWRIPRP | -0.416
52 | RRIRGRPPRLPRPRPRPCWMPRP | 0.301
53 | RRIRVRPPRLPRPRPRPWQFPRP | -0.0175
54 | RRIRQRPPRLPRPRPRPMYLPRP | -0.415
55 | RRIRDRPPRLPRPRPRPKAEPRP | -0.0211
56 | RRIRFRPPRLPRPRPRPDWDPRP | 0.124
57 | RRIRCRPPRLPRPRPRPYKWPRP | -0.636
58 | RRIRERPPRLPRPRPRPEHKPRP | -0.0265
59 | RRIRHRPPRLPRPRPRPGFFPRP | 0.0196
60 | RRIRFRPPRLPRPRPRPNMVPRP | -0.124
61 | RRIRRRPPRLPRPRPRPALPPRP | 0.48
62 | RRIRTRPPRLPRPRPRPNHCPRP | -0.479
63 | RRIRERPPRLPRPRPRPTQKPRP | 0.337
64 | RRIRTRPPRLPRPRPRPFDAPRP | -0.343
65 | RRIRARPPRLPRPRPRPIYSPRP | -0.227
66 | RRIRDRPPRLPRPRPRPPDDPRP | 0.535
67 | RRIRQRPPRLPRPRPRPYLNPRP | -0.329
68 | RRIRTRPPRLPRPRPRPKDSPRP | 0.0052
69 | RRIRDRPPRLPRPRPRPTVRPRP | 0.0184
70 | RRIRNRPPRLPRPRPRPMGPPRP | 0.0762
71 | RRIRDRPPRLPRPRPRPVMEPRP | 0.532
72 | RRIRQRPPRLPRPRPRPVQTPRP | -0.0915
73 | RRIRERPPRLPRPRPRPYQGPRP | -0.199
74 | RRIRTRPPRLPRPRPRPDGKPRP | -0.41
75 | RRIRRRPPRLPRPRPRPYMWPRP | -0.374

Row | Sequence | shrunken log2 fold change
76 | RRIRARPPRLPRPRPRPLLVPRP | 0.284
77 | RRIRCRPPRLPRPRPRPDRGPRP | 0.0229
78 | RRIRKRPPRLPRPRPRPYWFPRP | 0.00102
79 | RRIRQRPPRLPRPRPRPIPGPRP | -0.309
80 | RRIRPRPPRLPRPRPRPWLDPRP | 0.164
81 | RRIRHRPPRLPRPRPRPTGKPRP | -0.00448
82 | RRIRDRPPRLPRPRPRPYATPRP | 0.0348
83 | RRIRFRPPRLPRPRPRPANWPRP | 0.166
84 | RRIRVRPPRLPRPRPRPLCGPRP | 0.0478
85 | RRIRFRPPRLPRPRPRPKGSPRP | 0.089
86 | RRIRTRPPRLPRPRPRPTCAPRP | 0.175
87 | RRIRNRPPRLPRPRPRPPANPRP | 0.262
88 | RRIRLRPPRLPRPRPRPHIWPRP | -0.278
89 | RRIRSRPPRLPRPRPRPGLEPRP | 0.00456
90 | RRIRRRPPRLPRPRPRPYIKPRP | -0.509
91 | RRIRRRPPRLPRPRPRPIWRPRP | 0.181
92 | RRIRRRPPRLPRPRPRPSQNPRP | 0.0754
93 | RRIRNRPPRLPRPRPRPELAPRP | 0.0428
94 | RRIRLRPPRLPRPRPRPAFRPRP | 0.0862
95 | RRIRGRPPRLPRPRPRPYDYPRP | -0.15
96 | RRIRKRPPRLPRPRPRPKDFPRP | -0.0746
97 | RRIRERPPRLPRPRPRPEYMPRP | -0.0257
98 | RRIRLRPPRLPRPRPRPSTKPRP | -0.0833
99 | RRIRGRPPRLPRPRPRPRWRPRP | 0.973
100 | RRIRQRPPRLPRPRPRPYWRPRP | 0.0113

Row | Sequence | shrunken log2 fold change
101 | RRIRCRPPRLPRPRPRPEHHPRP | -0.114
102 | RRIRARPPRLPRPRPRPDCHPRP | 1.05
103 | RRIRWRPPRLPRPRPRPIDGPRP | 0.19
104 | RRIRKRPPRLPRPRPRPIVHPRP | -0.42
105 | RRIRSRPPRLPRPRPRPIDYPRP | -0.0581
106 | RRIRCRPPRLPRPRPRPERWPRP | 0.877
107 | RRIRTRPPRLPRPRPRPYHNPRP | -0.941
108 | RRIRYRPPRLPRPRPRPKSTPRP | -0.634
109 | RRIRHRPPRLPRPRPRPPVWPRP | 0.156
110 | RRIRNRPPRLPRPRPRPNSRPRP | -0.266
111 | RRIRSRPPRLPRPRPRPGYGPRP | -0.0163
112 | RRIRARPPRLPRPRPRPMHDPRP | 0.341
113 | RRIRKRPPRLPRPRPRPSQMPRP | 0.247
114 | RRIRARPPRLPRPRPRPMIYPRP | 0.00125
115 | RRIRTRPPRLPRPRPRPHKYPRP | -0.295
116 | RRIRHRPPRLPRPRPRPNDEPRP | -0.0904
117 | RRIRERPPRLPRPRPRPLAVPRP | -0.0594
118 | RRIRPRPPRLPRPRPRPGAIPRP | 0.0588
119 | RRIRNRPPRLPRPRPRPIWEPRP | -0.131
120 | RRIRNRPPRLPRPRPRPNYIPRP | -0.318
121 | RRIRQRPPRLPRPRPRPARGPRP | 0.126
122 | RRIRARPPRLPRPRPRPHFQPRP | 0.0811
123 | RRIRWRPPRLPRPRPRPTGWPRP | 0.594
124 | RRIRVRPPRLPRPRPRPLVAPRP | 0.196
125 | RRIRVRPPRLPRPRPRPGHTPRP | -0.000319

Row | Sequence | shrunken log2 fold change
126 | RRIRARPPRLPRPRPRPSDWPRP | 0.402
127 | RRIRDRPPRLPRPRPRPKAFPRP | -0.00149
128 | RRIRHRPPRLPRPRPRPCYPPRP | -0.384
129 | RRIRSRPPRLPRPRPRPTFSPRP | 0.019
130 | RRIRMRPPRLPRPRPRPQEVPRP | 0.126
131 | RRIRSRPPRLPRPRPRPMFFPRP | -0.274
132 | RRIRCRPPRLPRPRPRPNLPPRP | 0.649
133 | RRIRHRPPRLPRPRPRPTKWPRP | 0.0132
134 | RRIRERPPRLPRPRPRPKSEPRP | 0.196
135 | RRIRVRPPRLPRPRPRPYTHPRP | -0.912
136 | RRIRRRPPRLPRPRPRPDHNPRP | 0.121
137 | RRIRWRPPRLPRPRPRPCCSPRP | -0.0402
138 | RRIRHRPPRLPRPRPRPFRSPRP | -0.000777
139 | RRIRNRPPRLPRPRPRPCVEPRP | -0.209
140 | RRIRSRPPRLPRPRPRPGWMPRP | -0.0141
141 | RRIRKRPPRLPRPRPRPQYMPRP | 0.0201
142 | RRIRCRPPRLPRPRPRPRMHPRP | 0.066
143 | RRIRFRPPRLPRPRPRPYNVPRP | -0.138
144 | RRIRMRPPRLPRPRPRPKDVPRP | -0.000921
145 | RRIRYRPPRLPRPRPRPYDPPRP | -0.325
146 | RRIRWRPPRLPRPRPRPGFQPRP | 0.127
147 | RRIRTRPPRLPRPRPRPNSHPRP | -0.015
148 | RRIRWRPPRLPRPRPRPTPFPRP | 0.153
149 | RRIRGRPPRLPRPRPRPHMRPRP | 0.997
150 | RRIRVRPPRLPRPRPRPGRTPRP | 0.117
